Test results: the supplement of paper PMC9170038

System: MS2 coat protein
Experiment: apparent KD of MS2 coat protein; designed switch direction (-1 OFF switch, 1 ON switch): -1; higher = weaker reporter binding
How it was run: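 Designed RNA switches were transcribed on Illumina chips by stalled E. coli RNA polymerase and titrated with SNAP-549-labelled MS2 coat protein from 0.7 or 1.5 nM, doubling to 3 µM. Step length ran from 0.8–1.5 h at the lowest concentration to 10–20 min at the highest. The apparent KD is the median over clusters for each design, from curve-fitted normalised cluster fluorescence.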

[1] = Eterna round: R95, input ligand: microRNA oligo, concentration not stated
[2] = input ligand: microRNA oligo, concentration not stated
[3] = Eterna round: R95, input ligand: FMN 200 uM
[4] = Eterna round: R95, input ligand: none

Which “apparent KD of MS2 coat protein” value [1] does the source give for “CUCGGACAUGAGGAUCACCCAUGUGAGGAUAUGAUGCGAUCGUCGAAAGACGAUAGCAUCAGAAGGUACAAAUG [Fiskers Ex 1 - 22] (puzzle: Exclusion 1)” here?
The value was 55.6 nM.

“CCGGAAAUACAGGAUAUCGUAUCGGAUACGAUACGAGAAGGGUAUACAUGAGGAUCACCCAUGUGUCCUACCGG [Fiskers Ex 6 - 51] (Eterna round: R96, puzzle: Exclusion 6)” was tested. Which “apparent KD of MS2 coat protein” value (input ligand: FMN 200 uM) did it give?
Its value is 30.1 nM.

And the “apparent KD of MS2 coat protein” value [2]?
The value was 20.2 nM.

What about the “apparent KD of MS2 coat protein” value (input ligand: none) of the same sequence?
The value was 26.3 nM.

How did the “apparent KD of MS2 coat protein” value (input ligand: FMN 200 uM) turn out when “GAUCGACAUGAGGAUCACCCAUGUCAGGAUAUCGUCACUGGAGCCUCGGCUCCAGUGACGAGAAGGGACAUAAU [E1/13-A2] (Eterna round: R97, puzzle: Exclusion 1)” was run?
Its value is 46.8 nM.

And the “apparent KD of MS2 coat protein” value (input ligand: none)?
Its value is 39.4 nM.

Which “apparent KD of MS2 coat protein” value (input ligand: FMN 200 uM) does the source give for “ACAUGUCAUUGAGGAUAUUGCAAACAUGAGGAUCACCCAUGUAAACGGAUGCUCUUACGUGGGUUCGAGAAGGCGAUGUACAUU [Ex NG2 #93] (Eterna round: R96, puzzle: Exclusion NG 2)” here?
Its value is 930 nM.

What about the “apparent KD of MS2 coat protein” value [2] of the same sequence?
Its value is 39.8 nM.

What about the “apparent KD of MS2 coat protein” value (input ligand: none) of the same sequence?
The value was 242 nM.

What does the source list for “UAUGGUUAAGUCAGGAUAUGCUCAUAGAGGUCUAUGCAGAAGGGACAUGAGGAUCACCCAUGUAUGGUCGUGUU [Ex4 #64] (Eterna round: R97, puzzle: Brourd's mod of Exclusion 4)”?
apparent KD of MS2 coat protein (input ligand: FMN 200 uM): 84.6 nM; apparent KD of MS2 coat protein (input ligand: none): 53.6 nM

For “CCUAGACAUGAGGAUCACCCAUGUGAGGAUAUGAUGCGAUCGUCGAAAGACGAUAGCAUCAGAAGGCACAUAUG [Fiskers Ex 1 - 5] (Eterna round: R96, puzzle: Exclusion 1)”, which “apparent KD of MS2 coat protein” value (input ligand: FMN 200 uM) is on record?
Its value is 130 nM.

And the “apparent KD of MS2 coat protein” value [2]?
The value was 34.2 nM.

And the “apparent KD of MS2 coat protein” value (input ligand: none)?
Its value is 37.6 nM.

Which results are given for “AGAGCACAUGAGGAUCACCCAUGUCAGGAUAUGCAAGAAAGAAAGAAAGAAAGAAAGAGCAGAAGGGACAAAUA [?solved?] (puzzle: Exclusion 1)”?
apparent KD of MS2 coat protein [3]: 34.9 nM; apparent KD of MS2 coat protein [1]: 34.2 nM; apparent KD of MS2 coat protein [4]: 43.2 nM

Which “apparent KD of MS2 coat protein” value [1] does the source give for “GUAAAGUGAGGAUAUGGUAAAUUAAUUAUUAAUUAAUUAAUCCAGAAGGCACAUGAGGAUCACCCAUGUAAUUG [Mat - Exclusion 4 - D86] (puzzle: Exclusion 4)” here?
Its value is 22.2 nM.

“AGAGCCGUUGUAGGAUAUGCCCUCGGGUGAUGCCGGUCGCCACAUGAGGAUCACCCAUGUAGCGGGCAGAAGGGCAAACUCAGU [Eternabot solution 43] (Eterna round: R96, puzzle: Exclusion NG 2)” was tested. Which “apparent KD of MS2 coat protein” value (input ligand: FMN 200 uM) did it give?
Its value is 26.6 nM.

And the “apparent KD of MS2 coat protein” value [2]?
Its value is 13.4 nM.

What about the “apparent KD of MS2 coat protein” value (input ligand: none) of the same sequence?
Its value is 18.5 nM.

How did the “apparent KD of MS2 coat protein” value (input ligand: FMN 200 uM) turn out when “GGCACACAUGAGGAUCACCCAUGUCAGGAUAUGUGGCGAUCGUCGAUAGACGAUAGCCACAGAAGGGACAGGCC [Mat - Exclusion 1 - Eli Mod - D22] (Eterna round: R97, puzzle: Exclusion 1)” was run?
Its value is 110 nM.

And the “apparent KD of MS2 coat protein” value (input ligand: none)?
Its value is 69.9 nM.

With “UUAAAUCAUGUAGGAUAUGCAAGGCGAACCUAUGCAGAAGGACAUGAGGAUCACCCAUGUGCUGCGGUCUGCGUACAGAUCGCU [JL ENG1 1.02] (Eterna round: R96, puzzle: Exclusion NG 1)” as the sequence, how does the “apparent KD of MS2 coat protein” value (input ligand: FMN 200 uM) read?
The value was 503 nM.

What about the “apparent KD of MS2 coat protein” value [2] of the same sequence?
The value was 30.7 nM.

What about the “apparent KD of MS2 coat protein” value (input ligand: none) of the same sequence?
Its value is 39 nM.

With “AGGAUGUUAGGAUAUCGAAGGUUGUGGCAGGCGGGAAUUUGCGAGAAGGAACAUGAGGAUCACCCAUGUGAAAU [JR_Exclu4_Sub044] (puzzle: Exclusion 4)” as the sequence, how does the “apparent KD of MS2 coat protein” value [1] read?
The value was 19.7 nM.

What does the source list for “GCCAGAGCAGGAUAUUCAAUAUCUCACAUGAGGAUCACCCAUGUCCAGCGAAAGCUGGAGGGAGAAGGGCUCUGGC [Fiskers Ex 5 - 9] (puzzle: Exclusion 5)”?
apparent KD of MS2 coat protein [3]: 42.1 nM; apparent KD of MS2 coat protein [1]: 57.3 nM; apparent KD of MS2 coat protein [4]: 61.6 nM

What does the source list for “ACUUUUUGAGGAUAUACAUUGAUUAACAUGAGGAUCACCCAUGUACAAACAUGUAUUUGUGUAGAAGGCAGAAGAA [JR_Ex5_Sub068] (Eterna round: R97, puzzle: Exclusion 5)”?
apparent KD of MS2 coat protein (input ligand: FMN 200 uM): 14.9 nM; apparent KD of MS2 coat protein (input ligand: none): 13.2 nM

For “UUAUUGUAUGUAGGAUAUGCAUAUUAUUAUUAUGCAGAAGGACAUGAGGAUCACCCAUGUAUAUUAUUAUUAUAUAUUAUAUAU [Title] (Eterna round: R96, puzzle: Exclusion NG 1)”, which “apparent KD of MS2 coat protein” value [2] is on record?
Its value is 24.6 nM.

How did the “apparent KD of MS2 coat protein” value [3] turn out when “UGUACGAUGCGUGCUGACAUGCGUCGUGCAGCAGGUGUUACAUGAGGAUCACCCAUGUCCUCAUUUGCUCGUCUUGU [SL-sv3-2.09 JL mod] (puzzle: Sensor v3, turn-off variant 2)” was run?
The value was 379 nM.

And the “apparent KD of MS2 coat protein” value [1]?
Its value is 185 nM.

What about the “apparent KD of MS2 coat protein” value [4] of the same sequence?
Its value is 374 nM.

With “GCUAAGGUAGGAUAUUGCGACGUGAACAUGAGGAUCACCCAUGUCUGGUCUGACAGGCAUCAAGAAGGGCCAGUCU [Eternabot (L2) Solution 30] (Eterna round: R97, puzzle: Exclusion 5)” as the sequence, how does the “apparent KD of MS2 coat protein” value (input ligand: FMN 200 uM) read?
The value was 49.7 nM.

What about the “apparent KD of MS2 coat protein” value (input ligand: none) of the same sequence?
Its value is 62.7 nM.

What does the source list for “ACAUGUCAUCGAGGAUAUUGGACACAUGAGGAUCACCCAUGUACUCGGAUGCUCUAGCAUGAGUUCGAGAAGGCGAUGUACAUU [Ex NG2 #79] (Eterna round: R96, puzzle: Exclusion NG 2)”?
apparent KD of MS2 coat protein (input ligand: FMN 200 uM): 1350 nM; apparent KD of MS2 coat protein [2]: 234 nM; apparent KD of MS2 coat protein (input ligand: none): 593 nM

With “AGCUAGUCAGGAUAUACAAACAUGUCAAAAGACGUGAAGAGACAUGAGGAUCACCCAUGUAGAAGGGACUAGCA [Mat - Exclusion 2 - JL mod - D13] (Eterna round: R96, puzzle: Exclusion 2)” as the sequence, how does the “apparent KD of MS2 coat protein” value (input ligand: FMN 200 uM) read?
The value was 88.1 nM.

And the “apparent KD of MS2 coat protein” value [2]?
Its value is 15.7 nM.

What about the “apparent KD of MS2 coat protein” value (input ligand: none) of the same sequence?
The value was 22.9 nM.

“UUUGUUUAUGUAGGAUAUGCCUGGCGUGCCUUUGCAGAAGGACAUGAGGAUCACCCAUGUAACAUGAGGCUCACCCAUGUCGCC [salish99_ExNG1_r04_113] (Eterna round: R96, puzzle: Exclusion NG 1)” was tested. Which “apparent KD of MS2 coat protein” value (input ligand: FMN 200 uM) did it give?
The value was 134 nM.

What about the “apparent KD of MS2 coat protein” value [2] of the same sequence?
The value was 91.6 nM.

And the “apparent KD of MS2 coat protein” value (input ligand: none)?
Its value is 165 nM.

Which results are given for “UGUUUAUAUGAAGGAUAUACUUAACAUGAGGAUCACCCAUGUGGUGUUGUGAGUGAGUGAGUUUAGUAGAAGGUCAAUUCUUUU [JMF's solution 97] (Eterna round: R96, puzzle: Exclusion NG 2)”?
apparent KD of MS2 coat protein (input ligand: FMN 200 uM): 996 nM; apparent KD of MS2 coat protein [2]: 553 nM; apparent KD of MS2 coat protein (input ligand: none): 425 nM

For “CCGAAACAUGAGGAUCACCCAUGUGAGGAUAUGAGCGUCUAGUUGAGAGAUUGGACGCUCAGAAGGCACAUUGG [JR_Ex1_Sub075] (Eterna round: R97, puzzle: Exclusion 1)”, which “apparent KD of MS2 coat protein” value (input ligand: FMN 200 uM) is on record?
Its value is 76.7 nM.

And the “apparent KD of MS2 coat protein” value (input ligand: none)?
Its value is 121 nM.

For “GAUUAUGCGAGCUUUAGGGACAUGAGGAUCACCCAUGUUCGUCUUAUUAGUCUAGGUACGCUAACAUACCUAAAUCU [JMF 40] (puzzle: Sensor v3, turn-off variant 1)”, which “apparent KD of MS2 coat protein” value [3] is on record?
The value was 20.2 nM.

What about the “apparent KD of MS2 coat protein” value [1] of the same sequence?
Its value is 35.9 nM.

And the “apparent KD of MS2 coat protein” value [4]?
Its value is 22.8 nM.

What does the source list for “UGGCUGCUUAUGGAGUGUGACAUGAGGAUCACCCAUGUGGUAGUAAGGAACAAGCUUUUUACACGUACUUAUAAAGC [JR_SV3TOV1_Sub012] (puzzle: Sensor v3, turn-off variant 1)”?
apparent KD of MS2 coat protein [3]: 296 nM; apparent KD of MS2 coat protein [1]: 64.3 nM; apparent KD of MS2 coat protein [4]: 438 nM

How did the “apparent KD of MS2 coat protein” value (input ligand: FMN 200 uM) turn out when “AUAAUGUAAGGAUAUCAGUCGUUAAUAAUUAAUUAAUCGACUGAGAAGGUACAUGAGGAUCACCCAUGUGAUCA [E4/8-B2] (Eterna round: R97, puzzle: Exclusion 4)” was run?
Its value is 44.1 nM.

What about the “apparent KD of MS2 coat protein” value (input ligand: none) of the same sequence?
Its value is 1000 nM.
